# Assay results taken from the supplement of paper PMC10724198.
# System: Saccharomyces cerevisiae
# Test: protein stability index of tFT-peptide fusion in deletion strain of DOA10 (PSI (0-1 scale)); higher = more stable (slower turnover)
# Conditions: not given
# Protocol: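 MPS profiling in S. cerevisiae of two library types built from selected 12-aa C-degron peptides (IN1, IN2, LN1, LN3, VN2, R1-R5, W1-W3, Atg1 and Rpa12 C-termini): saturation mutagenesis libraries and C-terminal +1 capping libraries (13 aa). Each peptide is fused to the C-terminus of a sfGFP-mCherry timer, after a GGGS linker. Cells are FACS-sorted into 8 mCherry/sfGFP bins and sequenced. PSI runs from 0 (unstable) to 1 (stable), measured once in wild type and in the das1Δ or doa10Δ background.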
# 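Throughout, for protein stability index of tFT-peptide fusion in deletion strain of DOA10: PSI per variant is the weighted mean of its sequencing read distribution over the sorted stability bins, counting only variants with over 10 reads summed across bins.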
# 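Throughout, for protein stability index of tFT-peptide fusion in wild type: PSI derived as read-weighted mean over the 8 sorting bins, only variants exceeding 10 total reads kept, mCherry placed adjacent to the peptide and sfGFP distal.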
row,Sequence,protein stability index
1,RSLRVLLPLYFM,0.42
2,RSLRVLLPLYFQ,0.615
3,RSLRVLLPLYFRA,0.593
4,RSLRVLLPLYFRI,0.484

# System: Saccharomyces cerevisiae
# Test: protein stability index of tFT-peptide fusion in wild type (PSI (0-1 scale)); higher = more stable (slower turnover)
# Conditions: genetic background: wild type
row,Sequence,protein stability index
1,AFTLPMCPLLLR,0.171
2,AICLPMCPLLLR,0.224
3,AILLPMCPLLLR,0.281
4,AITLPMCALLLR,0.149
5,AITLPMCPLLKR,0.645
6,AITLPMCPLLLI,0.493
7,AITLPMCPLLLRD,0.422
8,AITLPMCPLLLV,0.349
9,AITLPMCPLLVR,0.181
10,AITLPMCPLTLR,0.363
11,AITLPMCQLLLR,0.174
12,AITLPMEPLLLR,0.441
13,AITLPMVPLLLR,0.153
14,AITLPNCPLLLR,0.337
15,AITLPSCPLLLR,0.304
16,AITVPMCPLLLR,0.299
17,ARWGVGLWRGAS,0.372
18,CKVSLPILLFFR,0.0542
19,CLASLPILLFFR,0.0826
20,CLHSLPILLFFR,0.0715
21,CLVRLPILLFFR,0.0563
22,CLVSAPILLFFR,0.11

row,Sequence,protein stability index
1,CLVSCPILLFFR,0.0926
2,CLVSGPILLFFR,0.217
3,CLVSIPILLFFR,0.057
4,CLVSLPILLFFRE,0.148
5,CLVSLPILLFFRN,0.0659
6,CLVSLPILLFMR,0.0691
7,CLVSLPILLMFR,0.0704
8,CLVSLPILLPFR,0.642
9,CLVSLPILLRFR,0.153
10,CLVSLPILMFFR,0.0684
11,CLVSLPILTFFR,0.523
12,CLVSLPNLLFFR,0.11
13,CQVSLPILLFFR,0.0497
14,GKYMCSVGCWFR,0.406
15,GLYICSVGCWFR,0.181
16,GLYLCSVGCWFR,0.21
17,GLYMCNVGCWFR,0.385
18,GLYMCPVGCWFR,0.26
19,GLYMCSFGCWFR,0.239
20,GLYMCSHGCWFR,0.435
21,GLYMCSVCCWFR,0.47
22,GLYMCSVDCWFR,0.574

row,Sequence,protein stability index
1,GLYMCSVGCWFF,0.473
2,GLYMCSVGCWFK,0.291
3,GLYMCSVGCWFRF,0.166
4,GLYMCSVGCWFRN,0.286
5,GLYMCSVGCWFS,0.381
6,GLYMCSVGCWVR,0.215
7,GLYMCSVGGWFR,0.644
8,GLYMCSVGHWFR,0.656
9,GLYMCSVGSWFR,0.634
10,GLYMCSVYCWFR,0.255
11,GLYMHSVGCWFR,0.255
12,GLYMLSVGCWFR,0.246
13,GSLRVLLPLYFR,0.242
14,HLYMCSVGCWFR,0.401
15,LLVSLPILLFFR,0.0951
16,PLVSLPILLFFR,0.138
17,QLYMCSVGCWFR,0.368
18,RDTRLDAIYFRI,0.563
19,RFTRLDAIYFRI,0.378
20,RITRLDAIYFRI,0.397
21,RMLRVLLPLYFR,0.359
22,RNLRVLLPLYFR,0.302

row,Sequence,protein stability index
1,RPIQPLPVQFLN,0.0515
2,RRWRVGLWRGAS,0.389
3,RSLGVLLPLYFR,0.321
4,RSLRMLLPLYFR,0.376
5,RSLRVHLPLYFR,0.157
6,RSLRVILPLYFR,0.197
7,RSLRVLLKLYFR,0.417
8,RSLRVLLPLKFR,0.431
9,RSLRVLLPLRFR,0.41
10,RSLRVLLPLYAR,0.348
11,RSLRVLLPLYFD,0.491
12,RSLRVLLPLYFI,0.255
13,RSLRVLLPLYFK,0.25
14,RSLRVLLPLYFM,0.328
15,RSLRVLLPLYFQ,0.431
16,RSLRVLLPLYFRA,0.244
17,RSLRVLLPLYFRI,0.184
18,RVIQPLPVQFLN,0.0531
19,RWIQPLPVQFLN,0.0536
20,SSMRWTFRYWVN,0.113
21,TRWRVGLWRGAS,0.394
22,TTSCGYKFRTNN,0.255

row,Sequence,protein stability index
1,VDGAVGGWRLVG,0.155
2,VRCAVGGWRLVG,0.126
3,VRGAVGGARLVG,0.618
4,VRGAVGGKRLVG,0.649
5,VRGAVGGWALVG,0.438
6,VRGAVGGWRLCG,0.239
7,VRGAVGGWRLMG,0.177
8,VRGAVGGWRLVGE,0.612
9,VRGAVGGWRLVN,0.157
10,VRGAVGGWRLVQ,0.24
11,VRGAVGGWRLWG,0.534
12,VRGAVGGWRYVG,0.157
13,VRGAVGHWRLVG,0.157
14,VRGAVIGWRLVG,0.146
15,VRGAWGGWRLVG,0.147
16,VRPAVGGWRLVG,0.106
17,WSLAASFWRVVG,0.116
18,YKHKKGQKQKIN,0.176
19,YRWRVGLWRGAS,0.223
